The target of test [1] is T1, HHLA2 expressed on cells (3T3 cell line expressing HHLA2; HHLA2/K562) (UniProt Q9UM44 23-414, limits assumed).
T1 construct: whole, on cells
T1 sequence (looked up): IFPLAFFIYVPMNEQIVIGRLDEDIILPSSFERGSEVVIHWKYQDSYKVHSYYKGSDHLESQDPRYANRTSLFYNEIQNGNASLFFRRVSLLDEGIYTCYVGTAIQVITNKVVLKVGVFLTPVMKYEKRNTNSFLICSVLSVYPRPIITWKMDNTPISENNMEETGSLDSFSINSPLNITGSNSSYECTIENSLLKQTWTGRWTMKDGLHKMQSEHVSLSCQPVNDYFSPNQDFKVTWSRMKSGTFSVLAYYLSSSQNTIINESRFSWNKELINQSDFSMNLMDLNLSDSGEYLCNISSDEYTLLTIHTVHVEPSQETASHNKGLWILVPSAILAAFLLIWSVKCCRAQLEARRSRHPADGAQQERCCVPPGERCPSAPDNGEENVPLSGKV
Kind of test: FACS, staining of 3T3 cells expressing HHLA2 (FIG. 2C).

In test [2] the target is T2, KIR3DL3 protein (antigen of the affinity determination of Table 3) (human, UniProt Q8N743 26-325, limits assumed).
T2 construct: also called human KIR3DL3
Briefly: method and antigen format not stated.

In test [3] the target is T3, HHLA2 EC-Ig-Fc fusion polypeptide (UniProt Q9UM44 23-344).
T3 construct: extracellular domain; also called whole extracellular part of HHLA2; not shown: Ig Fc part
T3 sequence (looked up): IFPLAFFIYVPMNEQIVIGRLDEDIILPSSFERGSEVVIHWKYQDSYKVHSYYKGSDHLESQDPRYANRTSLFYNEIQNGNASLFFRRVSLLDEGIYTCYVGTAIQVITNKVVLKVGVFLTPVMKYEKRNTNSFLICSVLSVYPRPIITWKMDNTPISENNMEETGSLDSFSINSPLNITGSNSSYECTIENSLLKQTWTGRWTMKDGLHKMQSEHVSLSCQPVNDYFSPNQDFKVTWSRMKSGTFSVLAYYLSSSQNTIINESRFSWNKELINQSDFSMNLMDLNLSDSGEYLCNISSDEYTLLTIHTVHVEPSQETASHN
Kind of test: FACS, staining of 3T3 cells expressing TMIGD2 (FIG. 8). An excerpt: To examine the binding of TMIGD2 to HHLA2, 3T3 cell lines expressing TMIGD2 were stained with a HHLA2 EC-Ig-Fc fusion polypeptide, a HHLA-2-IgV1-hIgG fusion polypeptide, or Ig (control) (FIG. 8).

Test [4] addresses T1, HHLA2 expressed on cells (3T3 cell line …). Briefly: intercellular conjugate assay (FIG. 2B).

In general, Kd refers to the concentration at which binding is half-saturated. A low value points to a tighter complex.

B1: KIR3DL3 D0-Ig fusion polypeptide (Fc fusion)
chain: QDKPFLSAWPGTVVSEGQHVTLQCRSRLGFNEFSLSKEDGMPVPELYNRIFRNSFLMGPVTPAHAGTYRCCSSHPHSPTGWSAPSNPVVIMVTGVHRKPSLLA
notes: Expressed in an S2 system; also called KIR3DL3 DO-Ig; KIR3DL3 D0(Q26-A128)-Ig; not shown: human IgG1 Fc tag
Regarding B1, the binding result in test [1] was “binds”.

B2: monoclonal 37A3 (antibody, V domains shown)
VH: QVQLVETGGGLVRPGNSLKLSCVTSGFTFSNYRMHWLRQPPGKRLEWIAVITVKSDNYGANFAESVKGRFTISRDDSKSSVYLQMNRLREEDTATYYCSRGSGPGFAYWGQGTLVTVS
VL: DIVMTQSPSSLSVSAGEKVTMSCKSSQSLLNSGNQKNYLAWYQQKPGQPPKLLIYGASTRESGVPDRFTGSGSGTDFTLTISSVQAEDLAVYYCQNDHSYPFTFGSGTKLEIK
notes: Mouse hybridoma mAb
Turning to B2, in test [2], the affinity, expressed as Kd, was 8500 pM.

B3: monoclonal 26E10 (antibody, V domains shown)
VH: QAYLQQSGAELVRSGASVKMSCKASGYTFTSYNIHWVKQTPGQGLEWIGYIYPGDGVTNYNQKFKGKATLTADTSSSTAYMQISSLTSEDSAVYFCARSGNYGNYEGFAYWGQGTLVTVSA
VL: DIKMTQSPSSMYASLGERVTITCKASQDTNSYLSWFQQKPGKSPKTLIYRANRLVDGVPSRFSGSGSGQDYSLTISSLEYEDMGIYYCLQYDEFPYTFGGGTKLEIK
In test [2], B3 returned a Kd of 170 pM.

B4: monoclonal 12A10 (antibody, V domains shown)
VH: QAYLQQSGAELVRSGASVKMSCKASGYTFTSYNMHWVKQTPGQGLEWIGYIFPGDGGTNYNQKFKGKATLTADTSSSTAYMQISSLTSEDSAVYFCARSGYYGNYEGFAYWGQGTLVTVSA
VL: DIKMTQSPSSMYASLGERVTITCKASQDINSYLSWFQQKPGKSPKTLIYRANRLVDGVPSRFSGSGSGQDYSLTISSLEYEDMGIYYCLHYAEFPYTFGGGTKLEIKR
As for B4, in test [2], the Kd was 690 pM.

B5: monoclonal 31C4 (antibody, V domains shown)
VH: QAYLQQSGAELVRSGASVKMSCKASGYTFTSYNMHWVKQTPGQGLEWIGYIFPGDGGTNYNQKFKGKATLTADTSSSTAYMQISSLTSEDSAVYFCARSGNYGNYEGFAYWGQGTLVTVSA
VL: DIKMTQSPSSMYASLGERVTITCKASQDINSYLSWFQQKPGKSPKTLIYRANRLVDGVPSRFSGSGSGQDYSLTISSLEYEDMGIYYCLQYDEFPYTFGGGTKLEIKR
notes: Mouse hybridoma mAb; Entries include leader (and vector-derived residues in the VL)
B5: the affinity in test [2], expressed as Kd, was 720 pM.

B6: monoclonal 14F8 (antibody, V domains shown)
VH: QVQLQQSGPEVVRPGVSVKISCKGSGYTFTDYTMHWVKQSHAKSLEWIGVISTYNGNTNYNQNFEGKATMTVDKSSSTAYMELARLTSEDSAIYYCARERGGDGYYSAVDYWGQGTSVTVS
VL: SIVMTQTPKFLLVSAGDRVTITCKASQSVINDVAWYQQKPGQSPKLLIYYASNRYTGVPDRFTGSGYGTDFTFTISTVQAEDLAVYFCQQDYSSPYTFGGGTKLEIKR
Consider B6, for which, in test [2], the Kd was determined as 690 pM.

B7: monoclonal 29H7 (antibody, V domains shown)
VH: QVQLQQSGPEVVRPGVSVKISCKGSGYTFTDYVMHWVKQSHGKSLEWIGVISTYNGNTNYNQKFKGKATMTVDKSSSTAYMELARLTSEDSAIYYCARERGGDGYYSAMDYWGQGTSVTVSS
VL: SIVMTQTPKFLLVSAGDRVTIACKASQSVINNVAWYQQKPGQSPELLIYYASNRYTGVPDRFTGSGYGTDFTFTITTVQAEDLAVYFCQQDYSSPYTFGGGTKLEIKR
notes: Mouse hybridoma mAb; Entries include (partial) leader
Consider B7, for which the Kd in test [2] is 1130 pM.

B8: monoclonal 51C3 (antibody, V domains shown)
VH: EVQLQQSGPELVKPGASVKISCKTSGYTFTEYIMHWVKQSHGKSLEWIGGINPNNGGTNYNQKFKGKATLTVDTSSSIAYMELRSLTSEDSAVYYCARDDGYYVKFAYWGQGTLVTVSA
VL: SIVMTQTPKFLLVSAGDRVTITCKASQSVINDVAWYQQKPGQSPKLLIYYASNRYTGVPDRFTGSGYGTDFTFTISTVQAEDLAVYFCQQDYSSPFTFGSGTKLEIKR
notes: Mouse hybridoma mAb; Entries include leader
In the case of B8, the affinity in test [2], expressed as Kd, was 190 pM.

B9: monoclonal 11G8 (antibody, V domains shown)
VH: QVQLQQSGPDLVRPGVSVKISCKGSGYTFTDYAMHWVKQSHAKSLEWIGVISTDSGTTNYNQKFKGKATMTVDKSSSTAYMDLARLTSEDSAIYYCARDSSYYVRFSYWGQGTLVTVSA
VL: SIVMTQTPKFLLVSVGDRVTITCKASQSVSNDVAWYQQKPGQSPKLLIYYASNRYTGVPDRFTGSGYGTDFTFTISTVQAEDLAVYFCQQDYSSPWTFGGGTKLEIKR
notes: as for B8
As to B9, binding in test [2] was put at a Kd of 290 pM.

B10: TMIGD2 expressed on 3T3 cells (receptor, UniProt Q96BF3 23-282, looked up)
chain: LSVQQGPNLLQVRQGSQATLVCQVDQATAWERLRVKWTKDGAILCQPYITNGSLSLGVCGPQGRLSWQAPSHLTLQLDPVSLNHSGAYVCWAAVEIPELEEAEGNITRLFVDPDDPTQNRNRIASFPGFLFVLLGVGSMGVAAIVWGAWFWGRRSCQQRDSGNSPGNAFYSNVLYRPRGAPKKSEDCSGEGKDQRGQSIYSTSFPQPAPRQPHLASRPCPSPRPCPSPRPGHPVSMVRVSPRPSPTQQPRPKGFPKVGEE
notes: whole, on cells
For the molecule B10, the binding result in test [3] is reported as “binds”.

B11: monoclonal 3B7 (antibody, V domains shown)
VH: QVQLQQSGPEVVRPGVSVKISCKGSGYTFSDYTMHWVKQSHAKSLEWIGVISTDNGNTNYNQKFKGKATMTVDKSSSTAYMELARLTSEDSAIYYCAREARDYGSIYALDYWGQGTSVTVS
VL: DIQMTQSPASLSASVGETVTITCRASGNIHNYLAWYQQKQGKSPQLLVYNAKTLADGVPSRFSGSGSGTQYSLKINNLQPEDFGNYYCQHFWSTPWTFGGGTKLEIKR
notes: Mouse hybridoma mAb; Entries include leader; Counted on the printed text
In test [2], B11 returned a Kd of 510 pM.

B12: monoclonal 30D10 (antibody, V domains shown)
VH: EVQLQQSGAELVRPGALVKLSCKASGFNFKDYFMHWVKQRPEQGLEWIGWIDPENGNTIYEPKFQGKASITADTSSNTAYLQLSSLTSEDTAVYYCARGGVGHWYFDVWGAGTTVTVS
VL: DIVLTQSPASLAVSLGQRATISCKASQSVDYDGDSYMNWYQQKPGQPPKLLIYVASNLKSGIPARFSGSGCGTDFTLNIHPVEEEDGATYYCQQTNEDPWTFGGGTKLEIK
notes: Mouse hybridoma mAb; VH entry includes leader and vector-derived residues
B12: binding in test [2] was characterised by a dissociation constant (Kd) of 160 pM.

B13: KIR3DL3 D0D1D2-Ig fusion polypeptide (Fc fusion)
chain: QDKPFLSAWPGTVVSEGQHVTLQCRSRLGFNEFSLSKEDGMPVPELYNRIFRNSFLMGPVTPAHAGTYRCCSSHPHSPTGWSAPSNPVVIMVTGVHRKPSLLAHPGPLVKSGETVILQCWSDVRFERFLLHREGITEDPLRLVGQLHDAGSQVNYSMGPMTPALAGTYRCFGSVTHLPYELSAPSDPLDIVVVGLYGKPSLSAQPGPTVQAGENVTLSCSSRSLFDIYHLSREAEAGELRLTAVLRVNGTFQANFPLGPVTHGGNYRCFGSFRALPHAWSDPSDPLPVSVTGNSRNLHVL
notes: Expressed in an S2 system; also called whole extracellular portion of KIR3DL3; whole extracellular part of KIR3DL3; not shown: human IgG1 Fc tag
In the case of B13, in test [1], the binding result is recorded as “binds”.

B14: monoclonal 34B10 (antibody, V domains shown)
VH: EVKLVESGGVLVQPGGSLRLSCATSGFTFTDYYMGWVRQPPGKALEWLGFIRNKANGYTTESSASVKGRFTISRDNSQSILYLQMNTLRAEDSATYYCARDYYSGSSLDYWGQGTTLTVSS
VL: DIQMTQTTSSLSASLGDRVTISCRASQDISNYLNWYQQKPDGTVKLLIYYTSRLHSGVPSRFSGSGSGTDYSLSISNLEQEDIATYFCQQGYTLPYTFGGGTKLEIKR
notes: as for B8
B14: in test [2], the Kd is 1510 pM.

B15: monoclonal 8G7 (antibody, V domains shown)
VH: EVMLVESGGGLVKPGGSLKLSCAASGFTFSTYAMSWVRQTPEKRLEWVATILSGGNYTYYPDSVKGRFTISRDNAKNTLNLQMSSLRSEDTAMYYCVIPYGSSPFDYWGQGTTLTVS
VL: SIVMTQTPKFLLVSAGDRVTITCKASQSVSNDVAWYQQKPGQSPKLLIYYASNRYTGVPDRFTGSGYGTDFTFTISTVQAEDLAVYFCQQDYSSPWTFGGGTKLEIK
notes: Mouse hybridoma mAb; also called anti-KIR3DL3 mAb clone 8G7
Molecule B15 returned a dissociation constant (Kd) in test [2] of 110 pM.

B16: KIR3DL3 expressed on cells (3T3 cell line expressing KIR3DL3; KIR3DL3+ NK92 cells; primary KIR3DL3+ NK cells and CD8 T cells) (receptor)
chain: QDKPFLSAWPGTVVSEGQHVTLQCRSRLGFNEFSLSKEDGMPVPELYNRIFRNSFLMGPVTPAHAGTYRCCSSHPHSPTGWSAPSNPVVIMVTGVHRKPSLLAHPGPLVKSGETVILQCWSDVRFERFLLHREGITEDPLRLVGQLHDAGSQVNYSMGPMTPALAGTYRCFGSVTHLPYELSAPSDPLDIVVVGLYGKPSLSAQPGPTVQAGENVTLSCSSRSLFDIYHLSREAEAGELRLTAVLRVNGTFQANFPLGPVTHGGNYRCFGSFRALPHAWSDPSDPLPVSVTGNSRNLHVLIGTSVVIIPFAILLFFLLHRWCANKKNAVVMDQEPAGNRTVNREDSDEQDPQEVTYAQLNHCVFTQRKITRPSQRPKTPPTDTSV
notes: also called KIR3DL3-expressing 3T3 cells; KIR3DL3 WT
For the molecule B16, the binding result in test [4] is on record as “binds”.
